Measured values published in US20240044903A1 (KOZA NOVEL MATERIALS KOREA, published 2024).

T1: recombinant canine TK1 (dog)
T1 construct: also called rCTK1; recombinant dog TK1
T1 chain: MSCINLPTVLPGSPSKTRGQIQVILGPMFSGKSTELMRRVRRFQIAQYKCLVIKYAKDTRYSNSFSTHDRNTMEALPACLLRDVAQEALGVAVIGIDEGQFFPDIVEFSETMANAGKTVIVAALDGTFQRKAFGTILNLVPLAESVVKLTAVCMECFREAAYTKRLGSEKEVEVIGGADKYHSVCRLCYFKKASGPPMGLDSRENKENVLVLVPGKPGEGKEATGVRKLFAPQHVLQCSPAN

T2: recombinant equine TK1 (horse, UniProt P04183 2-234 (human entry))
T2 construct: also called rETK1; horse TK1
T2 chain: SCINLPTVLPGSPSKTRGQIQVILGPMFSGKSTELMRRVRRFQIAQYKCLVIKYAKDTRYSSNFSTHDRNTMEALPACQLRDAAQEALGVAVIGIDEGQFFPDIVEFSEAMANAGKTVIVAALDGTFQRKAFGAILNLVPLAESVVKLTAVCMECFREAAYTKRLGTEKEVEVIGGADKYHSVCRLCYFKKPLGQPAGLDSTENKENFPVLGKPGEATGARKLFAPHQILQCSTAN

T3: recombinant feline TK1 (cat, UniProt P04183 2-234 (human entry))
T3 construct: also called rFTK1; cat TK1
T3 chain: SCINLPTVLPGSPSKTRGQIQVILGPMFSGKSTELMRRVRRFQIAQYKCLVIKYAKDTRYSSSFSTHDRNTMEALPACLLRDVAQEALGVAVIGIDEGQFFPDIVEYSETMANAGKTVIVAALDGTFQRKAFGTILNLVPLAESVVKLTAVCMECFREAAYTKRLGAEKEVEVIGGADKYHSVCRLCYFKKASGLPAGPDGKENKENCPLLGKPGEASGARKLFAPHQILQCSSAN

T4: recombinant human TK1 (human, UniProt P04183 1-234, limits assumed)
T4 construct: also called rHTK1; human recombinant TK1
T4 sequence: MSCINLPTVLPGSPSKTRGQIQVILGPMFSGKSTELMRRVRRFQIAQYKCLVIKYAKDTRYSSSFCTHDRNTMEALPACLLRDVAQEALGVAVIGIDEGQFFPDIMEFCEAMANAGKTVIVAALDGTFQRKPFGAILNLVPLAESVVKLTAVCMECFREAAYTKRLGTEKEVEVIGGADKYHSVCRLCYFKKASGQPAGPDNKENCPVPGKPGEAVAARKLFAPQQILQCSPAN

T5: human cytosolic TK1 in CEM TK1+ cell extract (human, UniProt P04183 2-234)
T5 construct: Cell extract with 25 ug (also printed as 25 pg) of protein; also called wild-type of CEM cell extract; cytosolic TK1 from human (CEM+)
T5 sequence: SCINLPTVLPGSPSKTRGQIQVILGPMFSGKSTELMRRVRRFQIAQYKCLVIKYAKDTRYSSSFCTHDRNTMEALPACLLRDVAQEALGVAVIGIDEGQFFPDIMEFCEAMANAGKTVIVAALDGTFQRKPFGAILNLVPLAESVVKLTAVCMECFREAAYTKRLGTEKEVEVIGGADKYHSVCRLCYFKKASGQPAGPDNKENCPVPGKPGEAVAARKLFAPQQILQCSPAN


What was measured:
recombinant canine TK1 = biological target: T1, recombinant canine TK1; assay: Quartz Crystal Microbalance, antibody immobilized, recombinant canine TK1 injected
Protocol: The kinetics of the interaction between the two monoclonal antibodies, mAb1 and mAb2 (150 kDa), and canine recombinant TK1 was measured by a Quartz Crystal Microbalance (QCM) technology. To characterize binding interactions, the monoclonal antibody was immobilized on the sensor surface and the sample containing recombinant canine TK1 was injected over the sensor surface. […] The signal output is given in frequency (Hz) and is directly related to changes in mass on the sensor surface.

recombinant equine TK1 [1] = biological target: T2, recombinant equine TK1; assay: ECL dot blot with recombinant TK1
Protocol: (§1) FIGS. 3A-3D show dot blot and Western blot analysis. Recombinant TK1 protein from canine (rCTK1), feline (rFTK1), equine (rETK1) and human (rHTK1) at concentration ranging from 20-0.6 ng was blotted. The membranes were developed with (FIG. 3A) monoclonal antibody produced against active site mAb1 ([…], diluted in TBS containing 3% of non-fat dry milk) and (FIG. 3B) monoclonal antibody produced against C terminal region mAb2 ([…], diluted in TBS containing 3% of non-fat dry milk). Recombinant dog TK1, human TK1 at concentration (10, 5 and 2.5 ng) and human TK1 positive cell extract containing 25 μg of protein (CEM TK1+) and TK1 negative cell extract containing 25 µg of protein (CEM TK1−) were electrophoresed using SDS-PAGE, followed by Western blots with […] of mAb1 diluted in TBS containing 3% of non-fat dry milk (FIG. 3C). Western blot results with […] of mAb2 diluted in TBS containing 3% of non-fat dry milk mAb 2 (FIG. 3D).
(§2) ECL dot blot assay was carried out as described previously (He et al., 2000). In brief, 3 μl of recombinant enzyme at varying concentrations ranged from 20 to 0.6 ng was applied on nitrocellulose membrane (Thermo scientific, Germany). The membrane was blocked in non-fat dry milk 10% (Bio-Rad) for 1 h and then incubated with the hybridoma supernatants or antisera and incubated for overnight at 4° C. Then after the membrane was washed and incubated with a biotinylated second antibody conjugated with horseradish peroxidase directed against mouse (GE healthcare, UK) for 1 h at room temperature. Followed by adding ECL reagent. Finally, the signal was detected by ChemiDoc Imaging System BIO-RAD.

recombinant feline TK1 [2] = biological target: T3, recombinant feline TK1; assay: ECL dot blot with recombinant TK1
Protocol: as §1, §2

recombinant human TK1 [3] = biological target: T4, recombinant human TK1; assay: ECL dot blot with recombinant TK1
Protocol: as §1, §2

[4] = biological target: T5, human cytosolic TK1 in CEM TK1+ cell …; assay: Western blot after SDS-PAGE, mAb2 at 2 pg/ml as printed
Protocol: as §1
(§3) Western blot assay: recombinant canine TK1, human recombinant TK1 ([…]) and cytosolic TK1 from human (CEM+/−) containing 25 µg of proteins were diluted in a denaturing sample buffer, boiled, and loaded onto a 12% polyacrylamide gel. The gel was electrophoresed in SDS running buffer. […]

[5] = biological target: T5, human cytosolic TK1 in CEM TK1+ cell …; assay: Western blot after SDS-PAGE of denatured cell extract
Protocol: as §1, §3

recombinant equine TK1 [6] = biological target: T2, recombinant equine TK1; assay: ECL dot blot with recombinant TK1, 20 to 0.6 ng
Protocol: as §1, §2

recombinant feline TK1 [7] = biological target: T3, recombinant feline TK1; assay: ECL dot blot with recombinant TK1, 20 to 0.6 ng
Protocol: as §1, §2

recombinant human TK1 [8] = biological target: T4, recombinant human TK1; assay: ECL dot blot with recombinant TK1, 20 to 0.6 ng
Protocol: as §1, §2

Binder	Kd (recombinant canine TK1) [nM]	koff (recombinant canine TK1) [s⁻¹]	kon (recombinant canine TK1) [M⁻¹ s⁻¹]	binding result (recombinant equine TK1 [1])	binding result (recombinant feline TK1 [2])	binding result (recombinant human TK1 [3])	binding result [4]	binding result [5]	binding result (recombinant equine TK1 [6])	binding result (recombinant feline TK1 [7])	binding result (recombinant human TK1 [8])
CTK1-2 (mAb2) (antibody, mouse IgG2b, kappa, V domains shown, Mouse monoclonal IgG2b-kappa from hybridoma sub-clone 3H11, raised against the C-terminal peptide (amino acids 211-225) of dog TK1; also called 3H11) VH: EVQLQQSGAELVKPGASVKLSCTASGFNIKDTYMHWVKQRPEQGLEWIGRIDPANGNTKYDPKFQGKATITPDTSSTTAYLQLSSLTSEDTAVYYCARNRAYYGNYYAMDYWGQGTSVTVSS VL: DIVMTQSPSSLTVTAGEKVTMSCKSSQSLLNSRNQKNYLTWYQQKPGQPPKLLIYWASTRESGVPDRFTGSGFGTDFTLAISSVQAEDLAVYYCQNDYSYPFTFGSGTKLEIKR	0.2 to 0.4	0.00011 to 0.00019	500000 to 540000	no binding (tested: 20 to 0.6 ng)	no binding (tested: 20 to 0.6 ng)	no binding (tested: 20 to 0.6 ng)	no binding	–	–	–	–
CTK1-1 (mAb1) (antibody, mouse IgG1, kappa, V domains shown, Mouse monoclonal IgG1-kappa from hybridoma sub-clone 9C8, raised against the active site peptide (amino acids 161-183) of human TK1; also called 9C8) VH: EVKLVESGGGLVQPGDSLRLSCATSGFTFNDHYMNWVRQPPGKALEWVAFIGNKAYGYKIEYNSSVKGRFTISRDDSQSFLYLQLNTLRSEDSATYYCARDGAFIYWGQGTVVTVSA VL: DVVMTQTPLSLPVSLGDQASISCRSSQSLVHSNGNTYLHWYLQKPGQSPKLLIYKVSNRFSGVPDRFSGSGSGSDFTLKISRVEAEDLGVYFCSQSTHIPYTFGGGTELEIRR	0.3 to 0.75	6.1e-05 to 0.00023	240000 to 300000	–	–	–	–	binds	binds	binds	binds
